For data set [1], the target named is LSD4 (lignostilbene-α,β-dioxygenase 4) from Sphingobium sp. SYK-6 (Sphingobium sp. SYK-6). Briefly: SEC-MALS; LSD4 at 2 mg/ml in 20 mM HEPES, pH 7.5, 100 mM NaCl, Superdex 75 10/300 GL, 0.4 ml/min, room temperature.
A further data set concerns the target T1, LSD3 (Sphingobium sp. SYK-6, UniProt G2IPX7).
T1 construct: gene SLG_11300; pET41b, E. coli BL21(DE3) lysate
T1 sequence (G2IPX7 1-491): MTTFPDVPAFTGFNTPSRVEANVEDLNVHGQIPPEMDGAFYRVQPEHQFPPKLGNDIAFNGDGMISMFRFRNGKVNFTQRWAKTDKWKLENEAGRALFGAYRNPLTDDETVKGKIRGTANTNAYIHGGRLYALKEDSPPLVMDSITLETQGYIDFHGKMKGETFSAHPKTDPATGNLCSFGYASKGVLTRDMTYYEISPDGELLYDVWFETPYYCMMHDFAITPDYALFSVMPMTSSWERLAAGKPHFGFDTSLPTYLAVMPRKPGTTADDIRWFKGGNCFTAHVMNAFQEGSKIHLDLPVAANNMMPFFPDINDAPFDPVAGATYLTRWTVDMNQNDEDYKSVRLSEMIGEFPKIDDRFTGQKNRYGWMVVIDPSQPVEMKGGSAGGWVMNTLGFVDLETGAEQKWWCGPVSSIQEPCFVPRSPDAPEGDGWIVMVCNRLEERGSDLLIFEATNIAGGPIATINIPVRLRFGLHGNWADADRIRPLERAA
Briefly: oxygraph O2 consumption, E. coli lysate. The class given is biochemical. Conditions: 100 μM substrate.

For another data set, the target named is T2, LSD2 (Sphingobium sp. SYK-6, UniProt G2IQG5).
T2 construct: gene SLG_36640; pET41b, E. coli BL21(DE3) lysate, co-produced with GroEL/GroES
T2 sequence (G2IQG5 1-490): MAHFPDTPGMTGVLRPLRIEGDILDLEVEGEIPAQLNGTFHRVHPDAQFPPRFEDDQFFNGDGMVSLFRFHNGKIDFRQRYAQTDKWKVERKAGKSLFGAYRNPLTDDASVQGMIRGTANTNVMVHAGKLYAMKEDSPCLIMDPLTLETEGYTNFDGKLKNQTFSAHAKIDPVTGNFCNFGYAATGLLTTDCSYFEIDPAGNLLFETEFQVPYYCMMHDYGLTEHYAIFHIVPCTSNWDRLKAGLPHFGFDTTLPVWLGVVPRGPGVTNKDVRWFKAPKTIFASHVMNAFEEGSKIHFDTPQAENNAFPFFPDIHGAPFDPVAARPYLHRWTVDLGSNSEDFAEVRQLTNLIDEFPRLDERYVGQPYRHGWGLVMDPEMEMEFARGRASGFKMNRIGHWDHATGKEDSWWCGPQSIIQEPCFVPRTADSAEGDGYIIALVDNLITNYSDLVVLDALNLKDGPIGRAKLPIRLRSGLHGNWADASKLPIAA
Description: oxygraph O2 consumption, E. coli lysate. The format is biochemical. Conditions: 100 μM substrate.

A further data set deals with T3, LSD5 (Sphingobium sp. SYK-6, UniProt G2IKS0).
T3 construct: gene SLG_27970; pET41b, E. coli BL21(DE3) lysate
T3 sequence (G2IKS0 1-492): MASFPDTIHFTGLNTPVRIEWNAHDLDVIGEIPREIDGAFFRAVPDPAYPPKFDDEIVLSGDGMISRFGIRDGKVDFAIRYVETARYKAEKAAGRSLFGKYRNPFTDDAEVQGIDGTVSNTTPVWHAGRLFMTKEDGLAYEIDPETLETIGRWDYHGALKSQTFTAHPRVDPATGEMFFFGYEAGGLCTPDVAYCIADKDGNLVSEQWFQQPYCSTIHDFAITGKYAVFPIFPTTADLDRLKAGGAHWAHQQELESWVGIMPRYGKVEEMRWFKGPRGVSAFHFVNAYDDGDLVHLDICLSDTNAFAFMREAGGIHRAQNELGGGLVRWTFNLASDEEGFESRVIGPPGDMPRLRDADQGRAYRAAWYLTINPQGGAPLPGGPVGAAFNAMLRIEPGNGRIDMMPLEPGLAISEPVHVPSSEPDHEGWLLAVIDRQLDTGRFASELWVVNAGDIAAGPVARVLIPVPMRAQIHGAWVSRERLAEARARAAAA
Description: oxygraph O2 consumption, E. coli lysate. The format is biochemical. Conditions: 100 μM substrate.

The next data set concerns the target T4, LSD1 (Sphingobium sp. SYK-6, UniProt G2IR63).
T4 construct: gene SLG_37540; pET41b, E. coli BL21(DE3) lysate, co-produced with GroEL/GroES
T4 sequence (G2IR63 1-486): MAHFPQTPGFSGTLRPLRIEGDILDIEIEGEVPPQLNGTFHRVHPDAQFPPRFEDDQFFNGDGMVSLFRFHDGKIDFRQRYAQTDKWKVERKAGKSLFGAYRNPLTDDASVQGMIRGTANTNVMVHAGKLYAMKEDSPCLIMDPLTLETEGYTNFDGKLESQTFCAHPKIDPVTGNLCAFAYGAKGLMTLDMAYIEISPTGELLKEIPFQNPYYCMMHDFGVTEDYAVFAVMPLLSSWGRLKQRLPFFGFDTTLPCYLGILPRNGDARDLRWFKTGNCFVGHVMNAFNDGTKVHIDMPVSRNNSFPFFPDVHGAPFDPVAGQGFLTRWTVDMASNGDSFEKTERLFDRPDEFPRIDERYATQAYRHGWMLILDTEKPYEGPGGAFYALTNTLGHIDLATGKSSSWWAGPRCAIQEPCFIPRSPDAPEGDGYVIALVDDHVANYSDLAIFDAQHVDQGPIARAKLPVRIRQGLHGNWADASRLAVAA
Briefly: oxygraph O2 consumption, E. coli lysate. The conditions noted are these: 100 μM substrate. The class given is biochemical.

For the next data set, the target named is T5, LSD7 (Sphingobium sp. SYK-6, UniProt G2INY0).
T5 construct: gene SLG_09440; pET41b, E. coli BL21(DE3) lysate
T5 sequence (G2INY0 1-483): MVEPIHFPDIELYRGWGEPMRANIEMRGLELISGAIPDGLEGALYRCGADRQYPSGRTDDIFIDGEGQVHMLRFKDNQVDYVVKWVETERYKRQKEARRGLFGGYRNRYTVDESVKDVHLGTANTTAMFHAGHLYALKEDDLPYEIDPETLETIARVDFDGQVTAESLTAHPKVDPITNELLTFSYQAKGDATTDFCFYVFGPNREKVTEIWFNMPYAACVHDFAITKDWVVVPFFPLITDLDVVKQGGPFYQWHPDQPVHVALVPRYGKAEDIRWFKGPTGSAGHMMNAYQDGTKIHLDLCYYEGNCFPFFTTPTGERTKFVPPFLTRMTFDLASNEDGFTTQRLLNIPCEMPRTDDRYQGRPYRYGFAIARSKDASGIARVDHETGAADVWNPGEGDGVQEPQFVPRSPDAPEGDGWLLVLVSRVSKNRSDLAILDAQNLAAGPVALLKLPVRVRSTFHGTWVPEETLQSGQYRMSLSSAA
Description: oxygraph O2 consumption, E. coli lysate. The class given is biochemical. The conditions noted are these: 100 μM substrate.

A further data set addresses T6, LSD6 (Sphingomonas paucimobilis, UniProt Q8RQW2).
T6 construct: gene lsdA; pET41b, E. coli BL21(DE3) lysate
T6 sequence (Q8RQW2 1-491): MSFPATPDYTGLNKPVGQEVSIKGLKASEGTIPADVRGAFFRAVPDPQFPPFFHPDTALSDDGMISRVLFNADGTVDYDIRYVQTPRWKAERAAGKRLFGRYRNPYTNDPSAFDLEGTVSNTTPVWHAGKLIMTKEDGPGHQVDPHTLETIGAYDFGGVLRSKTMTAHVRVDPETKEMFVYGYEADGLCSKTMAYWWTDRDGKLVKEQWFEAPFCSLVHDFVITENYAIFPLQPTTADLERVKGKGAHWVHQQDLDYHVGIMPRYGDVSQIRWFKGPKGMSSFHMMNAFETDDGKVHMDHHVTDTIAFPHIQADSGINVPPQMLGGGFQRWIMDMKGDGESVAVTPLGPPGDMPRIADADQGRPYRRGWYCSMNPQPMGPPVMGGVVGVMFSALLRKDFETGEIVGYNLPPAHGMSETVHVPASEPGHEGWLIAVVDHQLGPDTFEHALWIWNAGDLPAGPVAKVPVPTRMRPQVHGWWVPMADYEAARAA
Briefly: oxygraph O2 consumption, E. coli lysate. The class given is biochemical. Conditions: 100 μM substrate.

Substrate in data set [2]: COc1cc(/C=C/c2cc(/C=C/C(=O)O)cc(OC)c2O)ccc1O
Description: O2 electrode (oxygraph) steady-state kinetics. The class given is biochemical, Sphingobium sp. SYK-6. The conditions noted are these: air-saturated HEPES I = 0.1 M, pH 7.5, 25 °C. The text has this:
(§1) O2 electrode (oxygraph) steady-state kinetics on LSD4

Substrate in data set [3]: COc1cc(/C=C/c2ccc(O)c(OC)c2)ccc1O
Briefly: O2 electrode (oxygraph) steady-state kinetics. The class given is biochemical, Sphingobium sp. SYK-6. Conditions: air-saturated HEPES I = 0.1 M, pH 7.5, 25 °C.
Excerpt: as §1

Substrate in data set [4]: COc1cc(/C=C/c2ccc(O)cc2)cc(OC)c1
Briefly: O2 electrode (oxygraph) steady-state kinetics. The class given is biochemical, Sphingobium sp. SYK-6. The conditions noted are these: air-saturated HEPES I = 0.1 M, pH 7.5, 25 °C.
Excerpt: as §1

Substrate in data set [5]: Oc1ccc(/C=C/c2cc(O)cc(O)c2)cc1
Briefly: O2 electrode (oxygraph) steady-state kinetics. The format is biochemical, Sphingobium sp. SYK-6. The conditions noted are these: air-saturated HEPES I = 0.1 M, pH 7.5, 25 °C.
Excerpt: as §1

Numbering of substitutions follows the chain as printed. Numbers in names are those of the source.

In [1], “LSD4 (lignostilbene-α,β-dioxygenase 4) from Sphingobium sp. SYK-6 (enzyme)” showed a stoichiometry N of 2.

As to `COc1cc(/C=C/c2cc(/C=C/C(=O)O)cc(OC)c2O)ccc1O` [compound 1, 3-(4-hydroxy-3-(4-hydroxy-3-methoxystyryl)-5-methoxyphenyl) acrylate], the relative activity result is “lysates containing LSD2, LSD3, or LSD4 preferentially cleaved DCA-S over lignostilbene” on LSD3 and “lysates containing LSD2, LSD3, or LSD4 preferentially cleaved DCA-S over lignostilbene” at LSD2.

`COc1cc(/C=C/c2ccc(O)c(OC)c2)ccc1O` [compound 2, lignostilbene]: the relative activity entry at LSD5 is “cell lysates containing LSD1, LSD5, LSD6, or LSD7 preferentially cleaved lignostilbene over DCA-S”; on LSD3 it was “The seven soluble enzymes all cleaved lignostilbene”; on LSD1, “cell lysates containing LSD1, LSD5, LSD6, or LSD7 preferentially cleaved lignostilbene over DCA-S”; at LSD2, “The seven soluble enzymes all cleaved lignostilbene”; on LSD7, “cell lysates containing LSD1, LSD5, LSD6, or LSD7 preferentially cleaved lignostilbene over DCA-S”; at LSD6, “cell lysates containing LSD1, LSD5, LSD6, or LSD7 preferentially cleaved lignostilbene over DCA-S”.

B1: LSD4 (Sphingobium sp. SYK-6) (protein)
chain: MAHFPDTPAFTGFNAPSRIECDIPNLVHEGTIPPELNGAFFRVQPDPQFPPRLGDDISFNGDGMITRFHIHDGQCDIKQRWAKTNKWKLENAAGKALFGSYRNPLTDDESVKGEYRSTANTNAFVFAGKLWAMKEDSPSLTMDPATMETFGFEKFGGKMTGQTFTAHPKVDPLTGNMVAIGYAASGLCTDDVCLYEISPDGELIYEAWFKVPYYCMMHDFGVTKDYLVLHIVPSIGSWDRLEKGLPHFGFDTTLPVYLGIIPRRADLKQEDIRWFKRENCFASHVMNAFQEGTKVHVDVPEAENNMFPFFPDVHGAPFNPQQAMSRLTRWTVDMASNSDEFDSVTRLTETAGEFPRIDDRMTGLPYRYGWMLEMDMKRPVELKGGSAGGFLMNCLFLKDHQTGAEQHWWCGPTSSLQEPAFIPRSKDAPEGDGWIVQVCNRLADHKSDLLIFEALDIEKGPVATVHLPFALRFGLHGNWANAEEIGLAA
notes: residues 2-489 modelled; Fe2+ enzyme, Co-LSD4 for complexes
In the case of B1, the Km in data set [2] turned out to be 12 ± 1 µM; in [3], 13 ± 1 µM; in [4] it was 15 ± 2 µM; in data set [5], 22 ± 2 µM. In addition, the kcat in data set [2] was 11 ± 1 s⁻¹; in data set [3], 18 ± 1 s⁻¹; in data set [4] it was 1.9 ± 0.1 s⁻¹; in [5], 2.1 ± 0.1 s⁻¹. Besides, the kcat/Km in data set [2] was 900000 ± 100000 M⁻¹ s⁻¹; in data set [3], 1.4e+06 ± 100000 M⁻¹ s⁻¹; in data set [4] it was 130000 ± 10000 M⁻¹ s⁻¹; in [5], 90000 ± 10000 M⁻¹ s⁻¹.

B2: LSD4 (Sphingobium sp. SYK-6; S283A) (protein)
chain: B1 chain with S283A
notes: as for B1
For the molecule B2, in [2], the Km was 4.6 ± 0.5 µM, the kcat is 4.1 ± 0.1 s⁻¹ and the kcat/Km is 900000 ± 100000 M⁻¹ s⁻¹. For the same molecule, in data set [3], the Km amounted to 10 ± 1 µM, the kcat turned out to be 15.3 ± 0.4 s⁻¹ and the kcat/Km turned out to be 1.5e+06 ± 100000 M⁻¹ s⁻¹.

B3: LSD4 (Sphingobium sp. SYK-6; S283F) (protein)
chain: B1 chain with S283F
notes: as for B1
For B3, in [2], the Km is 2.7 ± 0.5 µM, the kcat came out at 0.035 ± 0.001 s⁻¹ and the kcat/Km came to 13000 ± 5000 M⁻¹ s⁻¹. Moreover, in [3], the Km worked out at 8.5 ± 0.7 µM, the kcat came to 0.14 ± 0.01 s⁻¹ and the kcat/Km stood at 16000 ± 2000 M⁻¹ s⁻¹.

The record behind these values is PMC8191317, “Structural and functional analysis of lignostilbene dioxygenases from Sphingobium sp. SYK-6” (The Journal of Biological Chemistry, 2021).
